Laboratory results: US20240287163A1 (Chugai, published 2024)
Values belong to the binder of their own block, whether it stands above or below them.

Columns and labels:
[1] = target: T1, recombinant human C1r2s2 tetramer (human, UniProt P09871 16-688; P00736 18-705); test: SPR (Biacore T200), IPN009 immobilised on CM5 chip as capture antibody
T1 construct: C1s and C1r co-expressed in HEK293 and purified from the supernatant as tetramer; also called hC1r2s2
T1 chain 1: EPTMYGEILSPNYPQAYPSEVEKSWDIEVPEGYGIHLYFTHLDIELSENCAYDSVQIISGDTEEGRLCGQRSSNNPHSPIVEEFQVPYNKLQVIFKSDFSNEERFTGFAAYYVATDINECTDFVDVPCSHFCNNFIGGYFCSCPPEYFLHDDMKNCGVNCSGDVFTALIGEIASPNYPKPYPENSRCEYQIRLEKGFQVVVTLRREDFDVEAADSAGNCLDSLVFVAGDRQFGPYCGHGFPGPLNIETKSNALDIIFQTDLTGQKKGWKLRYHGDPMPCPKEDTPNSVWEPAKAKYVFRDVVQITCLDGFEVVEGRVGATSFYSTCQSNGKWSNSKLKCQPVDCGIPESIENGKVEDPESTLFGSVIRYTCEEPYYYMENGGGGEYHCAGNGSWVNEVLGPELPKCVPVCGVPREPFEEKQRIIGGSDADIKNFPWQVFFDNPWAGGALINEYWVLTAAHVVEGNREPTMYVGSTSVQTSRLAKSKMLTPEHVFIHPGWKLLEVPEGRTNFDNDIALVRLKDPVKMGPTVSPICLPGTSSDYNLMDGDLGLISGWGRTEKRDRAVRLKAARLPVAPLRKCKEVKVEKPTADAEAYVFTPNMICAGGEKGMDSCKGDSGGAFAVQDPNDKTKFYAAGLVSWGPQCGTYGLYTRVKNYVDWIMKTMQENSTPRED
T1 chain 2: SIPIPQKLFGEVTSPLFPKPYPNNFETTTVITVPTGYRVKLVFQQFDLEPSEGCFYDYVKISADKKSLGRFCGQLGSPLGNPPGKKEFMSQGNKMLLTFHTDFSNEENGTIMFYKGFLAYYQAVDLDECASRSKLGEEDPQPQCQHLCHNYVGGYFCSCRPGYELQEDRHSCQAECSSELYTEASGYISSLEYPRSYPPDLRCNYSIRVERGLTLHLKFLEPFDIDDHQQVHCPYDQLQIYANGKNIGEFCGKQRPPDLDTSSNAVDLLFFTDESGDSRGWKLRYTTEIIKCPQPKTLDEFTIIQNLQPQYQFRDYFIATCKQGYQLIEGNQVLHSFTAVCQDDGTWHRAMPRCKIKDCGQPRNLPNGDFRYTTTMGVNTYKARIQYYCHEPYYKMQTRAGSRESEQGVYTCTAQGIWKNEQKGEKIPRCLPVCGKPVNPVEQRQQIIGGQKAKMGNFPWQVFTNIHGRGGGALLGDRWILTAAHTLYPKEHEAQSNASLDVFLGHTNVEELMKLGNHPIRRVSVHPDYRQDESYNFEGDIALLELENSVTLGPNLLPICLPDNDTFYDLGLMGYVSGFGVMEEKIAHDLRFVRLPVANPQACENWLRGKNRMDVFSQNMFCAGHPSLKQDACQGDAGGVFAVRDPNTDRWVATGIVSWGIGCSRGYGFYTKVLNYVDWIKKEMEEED
Procedure: (§1) The binding property of each sample at pH7.4 and pH6.0 was determined at 37° C. using BIACORE® T200 instrument (Cytiva). […] 20 mM ACES, 150 mM NaCl, 1.2 mM CaCl₂, 1 mg/mL BSA (not containing IgG), 1 mg/mL CMD, 0.05% Tween® 20, 0.005 w/v % NaN₃, pH7.4 or pH6.0 buffer was used as the running buffer. […] The antibody solution was added thereto at 30 μL/min for 120 seconds, the running buffer was then added at 30 μL/min for 180 seconds, and the dissociation constant (KD) of each antibody for hC1r2s2 and cyC1r2s2 was calculated. […] The sensor surface was regenerated every cycle, using 3 M MgCl2 (prepared in-house). The KD value was calculated using BIACORE® T200 evaluation software version 2.0 (Cytiva). The binding strengths under each pH condition were compared by dividing the KD value at pH6.0 with the KD value at pH7.4.

[2] = target: T2, recombinant cynomolgus C1r2s2 tetramer (cynomolgus monkey, limits assumed); test: as above
T2 construct: also called cyC1r2s2; monkey C1r2s2
T2 chain 1: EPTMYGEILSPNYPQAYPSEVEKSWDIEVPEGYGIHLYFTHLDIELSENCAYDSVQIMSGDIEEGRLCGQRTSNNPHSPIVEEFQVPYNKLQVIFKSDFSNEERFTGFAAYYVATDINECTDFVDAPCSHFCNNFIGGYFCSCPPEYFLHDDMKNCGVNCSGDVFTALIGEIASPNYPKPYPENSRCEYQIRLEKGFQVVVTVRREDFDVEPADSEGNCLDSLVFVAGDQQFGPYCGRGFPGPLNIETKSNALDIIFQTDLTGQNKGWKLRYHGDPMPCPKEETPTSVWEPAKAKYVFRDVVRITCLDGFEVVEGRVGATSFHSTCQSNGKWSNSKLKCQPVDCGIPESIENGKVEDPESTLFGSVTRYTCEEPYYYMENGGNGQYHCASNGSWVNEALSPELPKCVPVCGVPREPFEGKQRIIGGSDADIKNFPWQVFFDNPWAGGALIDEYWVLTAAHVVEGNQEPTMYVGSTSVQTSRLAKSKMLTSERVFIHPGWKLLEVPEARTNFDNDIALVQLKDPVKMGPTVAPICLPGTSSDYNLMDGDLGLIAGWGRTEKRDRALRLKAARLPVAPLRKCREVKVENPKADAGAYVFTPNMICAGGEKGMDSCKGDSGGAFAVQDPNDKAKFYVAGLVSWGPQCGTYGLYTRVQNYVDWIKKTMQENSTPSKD
T2 chain 2: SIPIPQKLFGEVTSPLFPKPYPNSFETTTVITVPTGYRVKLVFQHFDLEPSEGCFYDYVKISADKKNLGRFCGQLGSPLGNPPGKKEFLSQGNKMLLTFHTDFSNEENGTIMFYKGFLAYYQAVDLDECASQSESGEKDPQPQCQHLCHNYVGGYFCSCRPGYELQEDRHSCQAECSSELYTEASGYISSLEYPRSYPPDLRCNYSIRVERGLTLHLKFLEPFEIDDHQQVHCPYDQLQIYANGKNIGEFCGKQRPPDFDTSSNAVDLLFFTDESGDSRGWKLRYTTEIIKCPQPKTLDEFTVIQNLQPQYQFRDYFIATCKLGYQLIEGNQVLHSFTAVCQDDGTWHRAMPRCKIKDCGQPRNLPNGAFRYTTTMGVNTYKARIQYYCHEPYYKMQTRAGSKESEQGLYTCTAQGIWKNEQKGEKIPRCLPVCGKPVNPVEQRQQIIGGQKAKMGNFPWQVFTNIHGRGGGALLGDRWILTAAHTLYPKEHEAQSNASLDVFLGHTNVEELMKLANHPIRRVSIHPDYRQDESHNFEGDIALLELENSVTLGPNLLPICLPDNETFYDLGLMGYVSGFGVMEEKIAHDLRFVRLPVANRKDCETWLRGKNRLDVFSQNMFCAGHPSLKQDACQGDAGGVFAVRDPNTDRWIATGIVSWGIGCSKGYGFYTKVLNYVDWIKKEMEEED
Procedure: as §1

[3] = target: T1, recombinant human C1r2s2 tetramer; test: SPR (Biacore T200), 37 C; ratio of KD at pH 6.0 to KD at pH 7.4
Procedure: as §1

[4] = target: T2, recombinant cynomolgus C1r2s2 tetramer; test: as above
Procedure: as §1

[5] = target: T1, recombinant human C1r2s2 tetramer; test: SPR (Biacore T200), 37 C, pH 7.4; hC1r2s2 captured by IPN009, antibody as analyte; pH 7.4, 37 C; hC1r2s2 captured by IPN009 on the chip, antibody as analyte
Procedure: as §1

[6] = target: T1, recombinant human C1r2s2 tetramer; test: SPR (Biacore T200), 37 C, pH 6.0; hC1r2s2 captured by IPN009, antibody as analyte; pH 6.0, 37 C; hC1r2s2 captured by IPN009 on the chip, antibody as analyte
Procedure: as §1

[7] = target: T2, recombinant cynomolgus C1r2s2 tetramer; test: SPR (Biacore T200), 37 C, pH 6.0; cyC1r2s2 captured by IPN009, antibody as analyte
Procedure: as §1

[8] = target: T2, recombinant cynomolgus C1r2s2 tetramer; test: SPR (Biacore T200), 37 C, pH 7.4; cyC1r2s2 captured by IPN009, antibody as analyte
Procedure: as §1

binding result [1]: binds
binding result [2]: binds
B1: IPN009VH2VK3-SG1148 (antibody, human IgG1, kappa, V domains shown)
VH: EVMLVESGGGLVKPGGSLRLSCAASGFTFSNYAMSWVRQAPGKGLEWVATISSGGSHTYYLDSVKGRFTISRDNSKDTLYLQMNSLRAEDTALYYCARLFTGYAMDYWGQGTLVTVSS
VL: QIVLTQSPATLSLSPGERATLSCTASSSVSSSYLHWYQQKPGKAPKLWIYSTSNLASGVPSRFSGSGSGTDYTLTISSLQPEDFATYYCHQYYRLPPITFGQGTKLEIKR
notes: Anti-C1s / anti-human C1r2s2 antibody immobilised on the chip as capture reagent

KD (pH 6.0)/KD (pH 7.4) [3]: 26.5
KD (pH 6.0)/KD (pH 7.4) [4]: 43.8
Kd [5]: 0.388 nM
Kd [6]: 10.3 nM
Kd [7]: 22 nM
Kd [8]: 0.502 nM
B2: COS0637pHv3-TT91R (antibody, human IgG1, V domains shown)
VH: QVQLVESGGGVVQPGRSLRLSCAASGFTFSAYAMNWIRQPPGKGLEWIGLIYGSGHEFYASWAEERVTISVDTSKNQFSLKLSSVTAADTAVYYCARGRSKNYVSGFHLWGQGTLVTVSS
VL: DIQMTQSPSSLSASVGDRVTITCQASQILHDKKNLAWYQQKPGQPPKLLIYQASQLESGVPSRFSGSGSGTDFTLTISSLQPEDFATYYCHGEFSYESADLNQFGQGTKVEIKR
notes: Modified human IgG1 constant region TT91R, light chain constant region SK1
